From the supplement of paper PMC10065799, “High-throughput profiling of sequence recognition by tyrosine kinases and SH2 domains using bacterial peptide display” (eLife, 2023)

Key:
SHP2-C SH2 = test: SH2 binding enrichment of the phosphorylated peptide, bacterial display (enrichment ratio); higher = better substrate or ligand; peptides without Tyr show the background
c-Src SH2 = test: as above
Grb2 SH2 = Grb2 SH2 (UniProt P62993); test: as above
AncSZ = test: phosphorylation enrichment, bacterial display (enrichment ratio); higher = better substrate or ligand; peptides without Tyr show the background
Jak2 = Jak2 (UniProt O60674); test: as above
MERTK = MERTK (UniProt Q12866); test: as above
Chain of MERTK (Q12866 whole entry, looked up): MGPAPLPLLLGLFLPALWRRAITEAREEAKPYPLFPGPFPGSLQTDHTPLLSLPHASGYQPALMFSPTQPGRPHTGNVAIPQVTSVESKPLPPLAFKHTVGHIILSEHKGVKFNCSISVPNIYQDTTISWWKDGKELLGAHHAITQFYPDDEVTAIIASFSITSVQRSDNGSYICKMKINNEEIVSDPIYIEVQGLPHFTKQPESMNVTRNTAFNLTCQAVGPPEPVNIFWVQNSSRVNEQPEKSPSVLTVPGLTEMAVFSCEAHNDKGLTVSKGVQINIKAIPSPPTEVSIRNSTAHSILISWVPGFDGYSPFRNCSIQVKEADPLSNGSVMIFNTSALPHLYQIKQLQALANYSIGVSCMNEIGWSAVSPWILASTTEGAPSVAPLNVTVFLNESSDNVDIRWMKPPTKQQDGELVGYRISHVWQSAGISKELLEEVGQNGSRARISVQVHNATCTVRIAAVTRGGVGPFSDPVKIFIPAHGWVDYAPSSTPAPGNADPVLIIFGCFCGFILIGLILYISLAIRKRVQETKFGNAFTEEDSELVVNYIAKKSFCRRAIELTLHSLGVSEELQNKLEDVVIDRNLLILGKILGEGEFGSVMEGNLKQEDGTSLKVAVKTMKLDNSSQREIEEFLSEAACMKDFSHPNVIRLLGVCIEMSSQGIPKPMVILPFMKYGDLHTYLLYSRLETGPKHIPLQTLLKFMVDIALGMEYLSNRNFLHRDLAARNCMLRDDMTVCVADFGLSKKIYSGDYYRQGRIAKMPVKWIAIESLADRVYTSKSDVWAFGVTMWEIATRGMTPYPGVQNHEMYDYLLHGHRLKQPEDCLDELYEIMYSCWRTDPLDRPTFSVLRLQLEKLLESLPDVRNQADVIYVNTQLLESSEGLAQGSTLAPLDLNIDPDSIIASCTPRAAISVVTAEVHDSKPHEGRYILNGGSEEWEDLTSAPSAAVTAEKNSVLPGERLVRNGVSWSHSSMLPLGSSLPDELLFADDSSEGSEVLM

c-Abl (mouse) = test: as above
EPHB2 = EPHB2 (UniProt P29323); test: as above
Fer (mouse) = test: as above
c-Src = test: as above
EPHB1 = EPHB1 (UniProt P54762); test: as above
Chain of EPHB1 (P54762 whole entry, looked up): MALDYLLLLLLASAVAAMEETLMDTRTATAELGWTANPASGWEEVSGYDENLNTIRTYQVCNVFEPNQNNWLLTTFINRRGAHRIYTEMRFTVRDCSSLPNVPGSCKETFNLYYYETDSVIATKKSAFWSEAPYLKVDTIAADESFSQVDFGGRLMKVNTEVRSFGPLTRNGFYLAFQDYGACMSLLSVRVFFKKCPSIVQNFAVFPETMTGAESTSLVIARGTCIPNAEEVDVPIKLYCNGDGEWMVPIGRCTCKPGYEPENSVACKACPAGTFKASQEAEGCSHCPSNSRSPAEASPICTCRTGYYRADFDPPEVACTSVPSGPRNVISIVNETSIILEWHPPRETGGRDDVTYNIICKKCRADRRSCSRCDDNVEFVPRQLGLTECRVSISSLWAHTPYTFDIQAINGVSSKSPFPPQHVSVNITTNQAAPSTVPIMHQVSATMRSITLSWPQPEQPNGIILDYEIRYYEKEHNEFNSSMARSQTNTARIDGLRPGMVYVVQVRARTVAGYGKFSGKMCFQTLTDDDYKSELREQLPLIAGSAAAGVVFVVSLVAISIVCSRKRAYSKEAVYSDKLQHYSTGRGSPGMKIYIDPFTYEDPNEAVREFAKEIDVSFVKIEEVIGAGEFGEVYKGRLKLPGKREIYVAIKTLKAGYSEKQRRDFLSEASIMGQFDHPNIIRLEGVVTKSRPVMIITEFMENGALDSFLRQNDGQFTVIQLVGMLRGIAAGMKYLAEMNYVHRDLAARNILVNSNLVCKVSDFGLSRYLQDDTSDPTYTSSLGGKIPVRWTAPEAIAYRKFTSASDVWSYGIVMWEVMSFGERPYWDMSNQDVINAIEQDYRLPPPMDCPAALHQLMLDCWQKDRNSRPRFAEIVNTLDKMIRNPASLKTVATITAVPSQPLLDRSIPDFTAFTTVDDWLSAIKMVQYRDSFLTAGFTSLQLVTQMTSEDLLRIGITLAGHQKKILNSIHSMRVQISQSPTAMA

FGFR1 = FGFR1 (UniProt P11362); test: as above
Chain of FGFR1 (P11362 whole entry, looked up): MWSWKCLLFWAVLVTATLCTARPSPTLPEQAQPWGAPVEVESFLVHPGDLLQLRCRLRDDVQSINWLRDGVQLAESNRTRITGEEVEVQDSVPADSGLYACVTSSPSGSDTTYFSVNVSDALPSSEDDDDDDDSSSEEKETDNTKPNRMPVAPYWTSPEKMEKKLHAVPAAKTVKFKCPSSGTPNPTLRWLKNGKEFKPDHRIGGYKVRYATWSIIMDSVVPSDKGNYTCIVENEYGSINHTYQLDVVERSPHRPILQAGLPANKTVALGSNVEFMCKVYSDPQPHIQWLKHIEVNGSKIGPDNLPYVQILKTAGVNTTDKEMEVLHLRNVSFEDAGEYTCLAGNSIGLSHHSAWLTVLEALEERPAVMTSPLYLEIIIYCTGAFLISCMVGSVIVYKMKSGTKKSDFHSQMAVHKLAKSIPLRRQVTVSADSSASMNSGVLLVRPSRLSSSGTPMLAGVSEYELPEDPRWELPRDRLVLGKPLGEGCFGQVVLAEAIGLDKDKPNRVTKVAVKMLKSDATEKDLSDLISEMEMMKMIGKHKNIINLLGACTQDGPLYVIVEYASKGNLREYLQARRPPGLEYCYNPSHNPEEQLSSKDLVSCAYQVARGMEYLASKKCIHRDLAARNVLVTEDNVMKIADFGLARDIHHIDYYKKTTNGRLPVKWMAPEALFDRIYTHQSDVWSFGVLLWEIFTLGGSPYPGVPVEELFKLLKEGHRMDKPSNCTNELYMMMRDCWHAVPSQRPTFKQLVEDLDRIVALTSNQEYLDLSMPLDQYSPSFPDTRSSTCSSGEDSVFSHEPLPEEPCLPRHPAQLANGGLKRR

Fyn = Fyn (UniProt P06241); test: as above
Chain of Fyn (P06241 whole entry, looked up): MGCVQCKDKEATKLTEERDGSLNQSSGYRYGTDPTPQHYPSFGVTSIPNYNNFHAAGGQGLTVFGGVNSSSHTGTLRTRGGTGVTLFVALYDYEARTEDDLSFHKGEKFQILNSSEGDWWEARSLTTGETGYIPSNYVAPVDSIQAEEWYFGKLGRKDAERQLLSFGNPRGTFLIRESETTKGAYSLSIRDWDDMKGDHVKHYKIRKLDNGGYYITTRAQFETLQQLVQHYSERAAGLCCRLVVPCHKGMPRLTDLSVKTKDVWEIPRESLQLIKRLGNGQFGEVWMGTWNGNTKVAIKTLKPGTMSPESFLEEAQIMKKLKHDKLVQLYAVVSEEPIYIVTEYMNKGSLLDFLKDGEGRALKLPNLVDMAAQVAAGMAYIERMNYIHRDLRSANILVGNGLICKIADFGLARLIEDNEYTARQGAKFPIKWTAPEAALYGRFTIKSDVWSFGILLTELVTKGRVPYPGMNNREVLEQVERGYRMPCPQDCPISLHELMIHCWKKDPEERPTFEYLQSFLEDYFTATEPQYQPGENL

Fes = Fes (UniProt P07332); test: as above
Chain of Fes (P07332 whole entry, looked up): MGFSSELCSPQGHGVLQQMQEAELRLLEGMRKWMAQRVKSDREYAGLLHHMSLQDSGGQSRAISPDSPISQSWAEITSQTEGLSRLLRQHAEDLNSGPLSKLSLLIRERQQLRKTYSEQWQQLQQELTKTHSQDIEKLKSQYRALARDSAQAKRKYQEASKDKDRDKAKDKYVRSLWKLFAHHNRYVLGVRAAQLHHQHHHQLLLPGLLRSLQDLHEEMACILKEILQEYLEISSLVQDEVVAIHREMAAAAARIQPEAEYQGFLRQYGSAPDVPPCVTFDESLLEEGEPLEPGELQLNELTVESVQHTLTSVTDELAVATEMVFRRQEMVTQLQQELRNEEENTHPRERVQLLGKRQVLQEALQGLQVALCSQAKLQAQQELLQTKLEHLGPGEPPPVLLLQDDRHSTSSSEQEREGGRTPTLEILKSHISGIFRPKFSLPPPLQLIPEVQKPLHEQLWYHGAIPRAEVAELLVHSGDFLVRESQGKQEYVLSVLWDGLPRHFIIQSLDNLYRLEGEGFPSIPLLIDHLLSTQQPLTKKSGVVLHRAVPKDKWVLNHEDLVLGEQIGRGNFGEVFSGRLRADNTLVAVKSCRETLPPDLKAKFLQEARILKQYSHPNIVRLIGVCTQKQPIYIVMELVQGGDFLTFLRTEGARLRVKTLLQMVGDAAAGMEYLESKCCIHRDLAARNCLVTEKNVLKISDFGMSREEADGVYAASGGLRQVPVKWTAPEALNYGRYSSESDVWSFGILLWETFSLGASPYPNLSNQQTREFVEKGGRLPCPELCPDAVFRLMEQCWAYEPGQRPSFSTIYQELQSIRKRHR

Hck = Hck (UniProt P08631); test: as above
FGFR3 = FGFR3 (UniProt P22607); test: as above
Chain of FGFR3 (P22607 whole entry, looked up, the tested form may be a part): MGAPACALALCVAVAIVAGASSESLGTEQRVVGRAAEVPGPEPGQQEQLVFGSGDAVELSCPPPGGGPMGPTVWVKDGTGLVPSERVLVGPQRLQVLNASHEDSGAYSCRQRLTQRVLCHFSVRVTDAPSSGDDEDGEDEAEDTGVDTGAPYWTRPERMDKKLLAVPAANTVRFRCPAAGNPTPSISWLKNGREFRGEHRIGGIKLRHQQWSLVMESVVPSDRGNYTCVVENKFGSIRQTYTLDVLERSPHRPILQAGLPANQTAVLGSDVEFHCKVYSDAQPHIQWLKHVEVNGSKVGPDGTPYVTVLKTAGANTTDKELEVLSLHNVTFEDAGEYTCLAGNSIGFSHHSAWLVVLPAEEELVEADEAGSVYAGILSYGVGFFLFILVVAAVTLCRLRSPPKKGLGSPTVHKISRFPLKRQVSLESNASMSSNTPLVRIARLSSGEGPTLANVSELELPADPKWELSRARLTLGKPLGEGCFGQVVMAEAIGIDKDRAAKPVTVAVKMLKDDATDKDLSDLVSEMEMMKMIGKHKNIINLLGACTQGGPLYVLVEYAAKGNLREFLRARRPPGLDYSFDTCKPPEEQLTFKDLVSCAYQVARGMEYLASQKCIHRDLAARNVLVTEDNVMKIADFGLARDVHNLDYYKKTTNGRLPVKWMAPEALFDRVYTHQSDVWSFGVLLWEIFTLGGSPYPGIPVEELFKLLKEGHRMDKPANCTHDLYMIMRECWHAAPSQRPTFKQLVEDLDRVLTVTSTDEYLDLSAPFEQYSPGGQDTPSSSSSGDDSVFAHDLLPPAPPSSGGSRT
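Wherever SH2 binding enrichment of the phosphorylated peptide, bacterial display is given: peptide library displayed on the E. coli surface as eCPX fusions, selected cells deep-sequenced, score is each peptide's frequency after selection divided by its frequency in the input.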
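Wherever phosphorylation enrichment, bacterial display is given: 11-residue human phosphosite peptides and single-mutation variants displayed on the E. coli surface, counted by deep sequencing, each peptide's frequency after selection divided by its frequency in the unselected input library; frequency after pTyr selection over input frequency; kinase dosed for 20-30% of maximal phosphorylation in three min.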

| SH2 binding enrichment (SHP2-C SH2) | SH2 binding enrichment (c-Src SH2) | SH2 binding enrichment (Grb2 SH2) | Sequence | phosphorylation enrichment (AncSZ) | phosphorylation enrichment (Jak2) | phosphorylation enrichment (MERTK) | phosphorylation enrichment (c-Abl (mouse)) | phosphorylation enrichment (EPHB2) | phosphorylation enrichment (Fer (mouse)) | phosphorylation enrichment (c-Src) | phosphorylation enrichment (EPHB1) | phosphorylation enrichment (FGFR1) | phosphorylation enrichment (Fyn) | phosphorylation enrichment (Fes) | phosphorylation enrichment (Hck) | phosphorylation enrichment (FGFR3) |
| --- | --- | --- | --- | --- | --- | --- | --- | --- | --- | --- | --- | --- | --- | --- | --- | --- |
| 0.751 | 0.631 | 0.939 | HRNGMYGLHQD [SGSH_Y89_Q85R] | 0.515 | 0.626 | 0.396 | 0.502 | 0.51 | 0.432 | 0.389 | 0.39 | 0.485 | 0.49 | 0.428 | 0.294 | 0.421 |
| 0.515 | 0.467 | 0.607 | ICFSDYVEVAD [PHACTR1_Y525_R521C] | 2.01 | 1.28 | 0.459 | 0.985 | 1.42 | 0.609 | 0.549 | 1.81 | 2.34 | 0.555 | 1.55 | 0.698 | 2.26 |
| 0.57 | 0.471 | 0.615 | IDDLEYLHSQG [STK11_Y166_G163D] | 1.22 | 0.865 | 0.572 | 0.636 | 0.777 | 0.61 | 0.578 | 0.638 | 0.676 | 0.581 | 1.24 | 0.531 | 0.737 |
| 0.602 | 0.354 | 0.654 | IEELTYVIKQD [STX5_Y137_I138V] | 1.23 | 1.18 | 0.363 | 0.705 | 0.659 | 0.54 | 0.691 | 0.643 | 0.515 | 0.494 | 1.26 | 0.528 | 0.954 |
| 0.663 | 0.451 | 0.706 | IENKLYGMSDS [RET_Y1062_P1067S] | 0.805 | 1.08 | 0.547 | 0.678 | 0.524 | 0.646 | 0.614 | 0.464 | 0.484 | 0.438 | 0.948 | 0.543 | 0.511 |

The next lines start with the sequence.

| Sequence | SH2 binding enrichment (SHP2-C SH2) | SH2 binding enrichment (c-Src SH2) | SH2 binding enrichment (Grb2 SH2) | phosphorylation enrichment (AncSZ) | phosphorylation enrichment (Jak2) | phosphorylation enrichment (MERTK) | phosphorylation enrichment (c-Abl (mouse)) | phosphorylation enrichment (EPHB2) | phosphorylation enrichment (Fer (mouse)) | phosphorylation enrichment (c-Src) | phosphorylation enrichment (EPHB1) | phosphorylation enrichment (FGFR1) | phosphorylation enrichment (Fyn) | phosphorylation enrichment (Fes) | phosphorylation enrichment (Hck) | phosphorylation enrichment (FGFR3) |
| --- | --- | --- | --- | --- | --- | --- | --- | --- | --- | --- | --- | --- | --- | --- | --- | --- |
| HSFNSYTFPRL [PAK5_Y316_YF] | 0.494 | 0.481 | 0.699 | 1.78 | 1.31 | 0.55 | 0.849 | 0.629 | 0.489 | 0.374 | 0.802 | 0.59 | 0.407 | 1.74 | 0.525 | 0.958 |
| HSFQCYGRNEA [ENTPD3_Y262] | 0.82 | 0.529 | 0.945 | 1.23 | 0.594 | 0.585 | 0.736 | 1.04 | 0.759 | 0.417 | 0.875 | 0.761 | 0.711 | 1.28 | 0.797 | 1.18 |
| HSGIYYKPESL [L2HGDH_Y103] | 0.563 | 0.601 | 0.925 | 1.59 | 2.35 | 9.79 | 27.1 | 6.24 | 0.613 | 3.78 | 6.97 | 5.66 | 4.78 | 0.984 | 6.44 | 4.95 |
| HSRTRYERNIE [F2_Y434] | 1.37 | 0.752 | 1.31 | 1.08 | 0.742 | 0.763 | 0.929 | 0.531 | 1.14 | 0.683 | 0.851 | 0.835 | 0.465 | 0.986 | 0.766 | 0.663 |
| IDLEKYKLLPE [DHFR_Y157] | 0.718 | 0.486 | 0.844 | 0.956 | 0.92 | 0.484 | 0.775 | 0.738 | 0.51 | 0.39 | 0.528 | 0.546 | 0.511 | 1.2 | 0.433 | 0.683 |
| IDPFIYTPFGS [CYP3A4_Y432_YF] | 1.06 | 0.604 | 0.861 | 0.927 | 0.73 | 2.86 | 0.773 | 0.549 | 1.67 | 6.49 | 0.686 | 0.584 | 6.96 | 1.12 | 5.82 | 0.779 |
| IDPYIYTPFGS [CYP3A4_Y432] | 0.868 | 0.713 | 0.775 | 1.43 | 2.38 | 3.67 | 0.865 | 0.701 | 1.9 | 6.67 | 0.702 | 2.44 | 7.45 | 0.956 | 5.71 | 1.66 |
| IEDNEYTAREG [HCK_Y411] | 0.666 | 0.539 | 0.803 | 1.56 | 1.33 | 0.519 | 1.08 | 0.491 | 0.515 | 0.67 | 0.637 | 0.722 | 0.576 | 1.33 | 0.588 | 0.759 |
| IEPVIDVVQRR [ANOS1_Y217_Y217D] | 0.517 | 0.608 | 0.848 | 1.02 | 0.638 | 0.36 | 0.624 | 0.566 | 0.354 | 0.258 | 0.379 | 0.393 | 0.39 | 0.98 | 0.459 | 0.592 |
| IFETDYFQKGG [INSR_Y1189_R1191Q_YF] | 0.438 | 0.492 | 0.948 | 1.24 | 0.981 | 0.386 | 0.662 | 0.401 | 0.358 | 0.492 | 0.421 | 0.468 | 0.502 | 1.01 | 0.473 | 0.876 |
| IGRGSYAKVLL [PRKCZ_Y263] | 11.5 | 5.41 | 0.996 | 0.611 | 0.458 | 0.452 | 0.468 | 0.367 | 0.375 | 0.34 | 0.363 | 0.348 | 0.384 | 0.545 | 0.419 | 0.394 |
| IGSHAYGDQFR [IDH1_Y135_R132S_YF] | 0.96 | 0.425 | 0.892 | 0.527 | 0.477 | 0.377 | 0.363 | 0.389 | 0.394 | 0.353 | 0.32 | 0.518 | 0.464 | 0.556 | 0.498 | 0.51 |
